Assay results taken from PMC9071441 (2022).

B1: mNeonGreen-tagged T-bet DNA binding domain (aa 135-326), wild type [mouse] / mTagBFP-tagged GATA3 DNA binding domain (aa 259-369) [not stated] (parent complex)
chain 1: KLRVALSNHLLWSKFNQHQTEMIITKQGRRMFPFLSFTVAGLEPTSHYRMFVDVVLVDQHHWRYQSGKWVQCGKAEGSMPGNRLYVHPDSPNTGAHWMRQEVSFGKLKLTNNKGASNNVTQMIVLQSLHKYQPRLHIVEVNDGEPEAACSASNTHVFTFQETQFIAVTAYQNAEITQLKIDNNPFAKGFREN
chain 2: not shown

Variants of: B1
Assay: flow-cytometric FRET; HEK293T cells; parent: 0.036; read off a plot

Row | Variant | response [DFRET]
1 | chain 1 Q126A | ~0.031
2 | chain 1 K113L | ~0.041
3 | chain 1 E76A | ~0.043
4 | chain 1 K26A | ~0.018
5 | chain 1 I123E | ~-0.001

Next, values leading:

Row | response [DFRET] | Variant
6 | ~0.025 | chain 1 V124W
7 | ~-0.001 | chain 1 R190W
8 | ~-0.004 | chain 1 R29A, chain 1 R30A
